Consider twelve molecules from US20180193454A1 (IMMUNEXT, published 2018).

Positions count from the first letter of the chain named.

Usually Kd stands for the free concentration of one partner at which half of the binding sites on the other are occupied at equilibrium, for simple one-to-one binding. In general, koff refers to the rate constant with which the complex falls apart. A higher koff goes with fast dissociation. A word on the kon: it is the rate constant with which the complex forms. Higher therefore signals faster complex formation. What is called EC50 (read off the curve) is the concentration needed to bring the measured effect to its halfway point. Read a high EC50 (read off the curve) as a less potent agent.

To fix the notation:
T1: CD154 expressed on cells (CD154 expressing Jurkat cells; T cell CD154) (UniProt P29965 1-261, limits assumed)
T1 construct: whole, on cells; also called CD154 (expressed on Jurkat cells)
T1 sequence (looked up): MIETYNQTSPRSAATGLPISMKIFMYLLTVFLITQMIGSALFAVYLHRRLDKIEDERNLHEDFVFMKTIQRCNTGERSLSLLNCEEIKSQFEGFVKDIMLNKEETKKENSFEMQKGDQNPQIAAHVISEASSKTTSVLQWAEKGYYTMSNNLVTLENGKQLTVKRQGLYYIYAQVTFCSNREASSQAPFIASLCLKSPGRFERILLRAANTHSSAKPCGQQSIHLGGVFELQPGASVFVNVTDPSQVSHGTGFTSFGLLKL

T2: human CD154 (human, UniProt P29965 113-261, limits assumed)
T2 construct: also called CD154 antigen; CD40L
T2 sequence (looked up): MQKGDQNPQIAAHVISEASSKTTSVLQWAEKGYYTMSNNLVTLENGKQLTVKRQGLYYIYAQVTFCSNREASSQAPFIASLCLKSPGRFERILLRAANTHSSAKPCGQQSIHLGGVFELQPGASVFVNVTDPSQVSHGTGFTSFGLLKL

B1: INX021 (variant 21), humanized anti-human CD154 IgG1 antibody derived from IDEC-131 (antibody, V domains shown)
VH: EVQLQESGPGLVKPSETLSLTCTVSGDSITNGFWIWIRKPPGNKLEYMGYISYSGSTYYNPSLKSRISISRDTSKNQFSLKLSSVTAADTGVYYCAYRSYGRTPYYFDYWGQGTTLTVSS
VL: DIVMTQSPSFLSASVGDRVTITCKASSNLGHAVAWYQQKPGKSPKLLIYSASNRYTGVPDRFSGSGSGTDFTLTISSLQPEDFADYFCQQYDDYPYTFGGGTKLEIK
B2: IDEC-131, humanized anti-human CD154 IgG1 antibody (antibody, V domains shown)
VH: B1 VH with Y97C, Y109F
VL: B1 VL with S27Q, L29V, G30I, H31T, D92N, D93S
notes: Humanized human IgG1 derived from mouse antibody 24-31
B3: variant 27, humanized anti-human CD154 antibody derived from IDEC-131 (antibody, V domains shown)
VH: B1 VH
VL: B1 VL with S27Q, N28H
B4: variant 25, humanized anti-human CD154 antibody derived from IDEC-131 (antibody, V domains shown)
VH: B1 VH
VL: B1 VL with S27Q, G30N
B5: variant 31, humanized anti-human CD154 antibody derived from IDEC-131 (antibody, V domains shown)
VH: B1 VH
VL: B1 VL with S26N, S27Q, N28P
B6: variant 30, humanized anti-human CD154 antibody derived from IDEC-131 (antibody, V domains shown)
VH: B1 VH
VL: B1 VL with S26G, S27H, N28S, H31T
B7: variant 29, humanized anti-human CD154 antibody derived from IDEC-131 (antibody, V domains shown)
VH: B1 VH
VL: B1 VL with A25G, S26N, S27Q, N28P
B8: variant 28, humanized anti-human CD154 antibody derived from IDEC-131 (antibody, V domains shown)
VH: B1 VH
VL: B1 VL with S26P, N28S
B9: variant 26, humanized anti-human CD154 antibody derived from IDEC-131 (antibody, V domains shown)
VH: B1 VH
VL: B1 VL with S27Q, N28H, H31T
B10: variant 22, humanized anti-human CD154 antibody derived from IDEC-131 (antibody, V domains shown)
VH: B1 VH
VL: B1 VL with H31N
B11: variant 24, humanized anti-human CD154 antibody derived from IDEC-131 (antibody, V domains shown)
VH: B1 VH
VL: B1 VL with S26P, S27Q, H31T
B12: variant 23, humanized anti-human CD154 antibody derived from IDEC-131 (antibody, V domains shown)
VH: B1 VH
VL: B1 VL with A25G, N28P
notes: also called combination #23

In one assay the target is T1, CD154 expressed on cells (CD154 …). The assay is described as follows: binding to CD154 expressing Jurkat cells (legend calls it BIAcore binding assays), FIG. 3.
With B1, the “fold increase in binding affinity compared to IDEC-131” value was around 5 fold.

In the next assay the target is T2, human CD154. The experiment in a line: SPR, Biacore 3000, 25 C; antibody immobilized, CD154 antigen flowed over; average n = 6. The method, then:
(§1) Binding experiments were performed on Biacore […] at 25° C. […] Binding of antigen to the tested antibodies was monitored in real time. From the observed kₒₙ, the koff and KD was determined for each variant.
(§2) Scoring analysis was performed using specific analyte concentrations. At the tested concentration, binding should be observed even if the ligand binding affinity is relatively weak. Full kinetics may be performed by known methods. For the molecular interactions with fast off rate, steady state kinetics may be used to determine the KD value.
Background: Surface plasmon resonance follows binding to a sensor surface in real time, without labels.
With B2, the “Fold improvement in KD (compared to IDEC131)” value (“Fold improvement in KD” below) was 1 fold, the Kd amounted to 0.151 nM, the koff was 0.000525 s⁻¹ and the kon stood at 3.47e+06 M⁻¹ s⁻¹.

With B1, the “Fold improvement in KD” value was 4.7 fold, the Kd is 0.0289 nM, the koff amounted to 0.000128 s⁻¹ and the kon is 4.42e+06 M⁻¹ s⁻¹.

As to B3, the “Fold improvement in KD” value was 4.5 fold, the dissociation constant (Kd) turned out to be 0.0336 nM, the koff was 0.00012 s⁻¹ and the kon was found to be 3.58e+06 M⁻¹ s⁻¹.

Regarding B4, the “Fold improvement in KD” value was 3.9 fold, the Kd was 0.0362 nM and the kon was found to be 4.11e+06 M⁻¹ s⁻¹.

B5: the “Fold improvement in KD” value was 4.8 fold, binding was characterised by a dissociation constant (Kd) of 0.0341 nM, the koff is 0.000123 s⁻¹ and the kon was determined as 3.61e+06 M⁻¹ s⁻¹.

On to B6, for which the “Fold improvement in KD” value came to 4.4 fold, the Kd turned out to be 0.0329 nM, the koff amounted to 0.00014 s⁻¹ and the kon worked out at 4.24e+06 M⁻¹ s⁻¹.

On to B7, for which the “Fold improvement in KD” value was 4.2 fold, the Kd came out at 0.0344 nM, the koff came to 0.000133 s⁻¹ and the kon is 3.86e+06 M⁻¹ s⁻¹.

Turning to B8, the “Fold improvement in KD” value is 4.8 fold, the Kd worked out at 0.0315 nM, the koff was 0.000115 s⁻¹ and the kon was 3.65e+06 M⁻¹ s⁻¹.

In the case of B9, the “Fold improvement in KD” value was 2.5 fold, the Kd was 0.0576 nM and the kon is 2.03e+06 M⁻¹ s⁻¹.

In the case of B10, the “Fold improvement in KD” value came out at 5.2 fold, the Kd was determined as 0.0262 nM, the koff amounted to 0.000117 s⁻¹ and the kon came out at 4.48e+06 M⁻¹ s⁻¹.

In the case of B11, the “Fold improvement in KD” value was found to be 4.9 fold, binding was put at a Kd of 0.0364 nM, the koff was found to be 0.000135 s⁻¹ and the kon was 3.7e+06 M⁻¹ s⁻¹.

Take B12: the “Fold improvement in KD” value stood at 4.2 fold, the Kd turned out to be 0.0421 nM, the koff is 0.000141 s⁻¹ and the kon stood at 3.35e+06 M⁻¹ s⁻¹.

A further assay deals with T1, CD154 expressed on cells (CD154 …). The assay is described as follows: binding to CD40L (CD154) expressing Jurkat cells, readout % normalized mean MFI (panel title 'CD40L Jurkat Binding'; legend paragraph 14 calls it a BIAcore assay).
Consider B2, for which the “EC50 (read off the curve)” value is around 4 nM.

In a further assay the target is T2, human CD154. The experiment in a line: SPR, Biacore 3000, 25 C; antibody immobilized, CD154 antigen flowed over; average n = 6; exponent sign is a misprint in the cell ('+04'); value taken as E-04, as fixed by the same row's KD x Ka (3.62E-11 x 4.11E+06 = 1.49E-04). On the procedure: as §1, §2
B4 displayed a koff of 0.000149 s⁻¹.
